Assay results: article PMC3519778

Biological target: CD26 on human monocyte-derived immature dendritic cells (human (endogenous in monocyte-derived iDCs)) (UniProt P27487)
UniProt P27487, sequence (P27487 whole entry): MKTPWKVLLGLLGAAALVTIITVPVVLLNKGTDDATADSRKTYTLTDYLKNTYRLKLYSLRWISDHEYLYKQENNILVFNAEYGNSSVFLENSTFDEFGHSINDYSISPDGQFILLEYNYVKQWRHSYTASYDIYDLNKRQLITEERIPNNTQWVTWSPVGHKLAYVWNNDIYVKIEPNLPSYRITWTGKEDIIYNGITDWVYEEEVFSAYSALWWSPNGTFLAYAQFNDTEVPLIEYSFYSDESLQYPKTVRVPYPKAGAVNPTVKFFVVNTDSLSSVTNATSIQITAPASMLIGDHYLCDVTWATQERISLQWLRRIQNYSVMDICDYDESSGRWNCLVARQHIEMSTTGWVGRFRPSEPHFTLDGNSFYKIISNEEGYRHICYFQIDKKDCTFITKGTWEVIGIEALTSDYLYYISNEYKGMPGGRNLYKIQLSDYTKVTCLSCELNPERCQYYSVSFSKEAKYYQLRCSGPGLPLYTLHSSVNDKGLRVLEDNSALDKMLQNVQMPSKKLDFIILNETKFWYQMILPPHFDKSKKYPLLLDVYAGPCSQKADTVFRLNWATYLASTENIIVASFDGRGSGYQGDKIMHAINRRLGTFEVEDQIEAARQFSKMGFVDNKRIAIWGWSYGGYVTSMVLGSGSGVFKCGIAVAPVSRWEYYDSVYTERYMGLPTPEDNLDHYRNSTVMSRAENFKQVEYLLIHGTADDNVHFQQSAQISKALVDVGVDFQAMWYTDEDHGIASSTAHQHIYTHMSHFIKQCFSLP

B1: Adenosine deaminase (ADA, EC 3.5.4.4) from calf intestine (enzyme)
chain: MAQTPAFNKPKVELHVHLDGAIKPETILYYGRKRGIALPADTPEELQNIIGMDKPLSLPEFLAKFDYYMPAIAGCREAVKRIAYEFVEMKAKDGVVYVEVRYSPHLLANSKVEPIPWNQAEGDLTPDEVVSLVNQGLQEGERDFGVKVRSILCCMRHQPSWSSEVVELCKKYREQTVVAIDLAGDETIEGSSLFPGHVKAYAEAVKSGVHRTVHAGEVGSANVVKEAVDTLKTERLGHGYHTLEDATLYNRLRQENMHFEVCPWSSYLTGAWKPDTEHPVVRFKNDQVNYSLNTDDPLIFKSTLDTDYQMTKNEMGFTEEEFKRLNINAAKSSFLPEDEKKELLDLLYKAYGMPSPASAEQCL
ADA-mediated upregulation of CD80 on iDCs (flow cytometry, 48 h, 2 uM ADA) after pre-incubation of the cells with the anti-CD26 mAb TA5.9 (directed against the ADA-binding epitope on CD26): 0.64 in-fold
ADA-mediated upregulation of CD83 on iDCs (flow cytometry, 48 h, 2 uM ADA) after pre-incubation of the cells with the anti-CD26 mAb TA5.9 (directed against the ADA-binding epitope on CD26): 0.46 in-fold
